T1: HqRRM1,2 BTFA-labeled (human, UniProt P31943 10-194)
T1 sequence: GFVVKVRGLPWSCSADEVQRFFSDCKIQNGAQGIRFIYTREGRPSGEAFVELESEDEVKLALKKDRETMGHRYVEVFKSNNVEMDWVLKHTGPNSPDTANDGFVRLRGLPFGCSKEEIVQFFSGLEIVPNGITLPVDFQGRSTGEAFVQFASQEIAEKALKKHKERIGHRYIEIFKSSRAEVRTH

T2: HqRRM1,2 (hnRNP H tandem qRRMs) (human, UniProt P31943 10-194)
T2 sequence: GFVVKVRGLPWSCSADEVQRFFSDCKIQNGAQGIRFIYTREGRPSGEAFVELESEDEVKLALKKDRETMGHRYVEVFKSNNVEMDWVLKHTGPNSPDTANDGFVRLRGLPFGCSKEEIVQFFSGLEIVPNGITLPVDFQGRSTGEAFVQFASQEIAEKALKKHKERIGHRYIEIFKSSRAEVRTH

T3: HqRRM1 (hnRNP H qRRM1) (human, UniProt P31943 10-111)
T3 sequence: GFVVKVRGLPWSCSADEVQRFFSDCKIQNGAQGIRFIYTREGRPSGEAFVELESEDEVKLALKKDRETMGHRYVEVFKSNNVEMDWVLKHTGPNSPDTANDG

T4: HqRRM2 (hnRNP H qRRM2) (human, UniProt P31943 94-194)
T4 sequence: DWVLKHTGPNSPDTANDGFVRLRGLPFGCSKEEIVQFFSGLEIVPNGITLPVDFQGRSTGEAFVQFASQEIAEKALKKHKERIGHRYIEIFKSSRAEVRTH


Assays:
HqRRM1,2 BTFA-labeled = target: T1, HqRRM1,2 BTFA-labeled; experiment: 19F NMR PRE
[1] = target: T2, HqRRM1,2 (hnRNP H tandem qRRMs); experiment: ITC
HqRRM1 (hnRNP H qRRM1) = target: T3, HqRRM1 (hnRNP H qRRM1); experiment: ITC
HqRRM2 (hnRNP H qRRM2) = target: T4, HqRRM2 (hnRNP H qRRM2); experiment: ITC

| Binder | binding result (HqRRM1,2 BTFA-labeled) | Kd [1] [nM] | Kd (HqRRM1 (hnRNP H qRRM1)) [µM] | Kd (HqRRM2 (hnRNP H qRRM2)) [nM] |
| --- | --- | --- | --- | --- |
| AGGGAU (ssRNA, phosphorothioate between A5 and U6) [AGGGA*U spin-labeled] | binds |  |  |  |
| AGGGU (ssRNA) |  | 800 ± 100 | 3.2 ± 0.1 | 2200 ± 800 |

From article PMC6648666
